Assay [1] concerns the target T1, human CD40-His tag protein (Sino Biological Inc. Cat #10239-H08E) (human, UniProt P25942 21-193).
T1 construct: also called human CD40 protein; CD40 protein; not shown: His tag
Briefly: ELISA, plate coated with human CD40-His at 1 ug/ml, anti-human IgG-HRP, A450. As to the method:
CD40 protein (human CD40-His tag protein (Sino Biological Inc. Cat #10239-H08E) or rhesus monkey CD40-His (Sino Biological Inc. Cat #90097-C02H) was diluted in PBS to 1 ug/ml and used to coat an ELISA plate (Corning, Cat #9018, high binding) at a concentration of 50 ul/well. The plate was incubated overnight at 4° C. The plate was then decanted and washed with PBS-T, and 200 μl/well assay diluent (1×PBS/1% BSA/0.05% Tween-20/0.05% proclin 300) was added. After a 3 hour incubation at room temperature, the plate was washed with PBS-T three times. The testing antibodies were diluted in assay diluent to 0, 0.000003, 0.00003, 0.0003, 0.003, 0.03, and 0.3 ug/ml or approximately 0, 0.00002, 0.0002, 0.002, 0.02, 0.2 and 2 nM and then added to the plate (50 ul/well). The plate was incubated for one hour at 37° C. and then washed three times with PBS-T. Anti-human IgG-HRP conjugate (Bethyl Cat #A80-319P) at a 1:10,000 dilution was added to the plate (100 ul/well). The plate was incubated for 0.5 hour at 37° C., followed by washing with PBS-T three times. The TMB substrate solution was added (100 ul/well). The color was allowed to develop for 8 minutes before it was stopped with 100 ul/well 2N H₂SO₄. Absorbance at 450 nm was determined with an ELISA reader.
In general terms: ELISA stands for enzyme-linked immunosorbent assay.

Assay [2] deals with monkey CD40 protein (plate coat of the ELISA of Fig. 5) (cynomolgus monkey per paragraph 23; rhesus …). Briefly: ELISA on monkey CD40 protein coated on the plate, anti-human IgG-HRP, A450.

T1 sequence (P25942 21-193 limits assumed, stated change not applied): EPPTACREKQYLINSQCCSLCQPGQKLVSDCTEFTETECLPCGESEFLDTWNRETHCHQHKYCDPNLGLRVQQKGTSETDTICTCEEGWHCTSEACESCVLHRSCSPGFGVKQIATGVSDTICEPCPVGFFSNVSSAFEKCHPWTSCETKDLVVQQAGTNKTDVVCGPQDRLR

B1: LYV377 (chimeric antibody, 13F1A7 in human IgG4SP / human kappa) (antibody, V domains shown)
VH: EVQILETGGGLVKPGGSLRLSCATSGFNFNDSFMNWVRQAPGKGLEWVAQIRNKNYNYATYYTESLEGRVTISRDDSKSRVYLQVSSLRAEDSAVYYCTSYYYDGFADYFDYWGQGVMVTVSS
VL: DIKMTQSPSFLSASVGDSVTFTCKASQNIYIYLNWYQQKFGEAPKLLIYNTNNLQTGIPSRFSGSESGTVFTLTISSLQPEDVATYFCLQHSSRRTFGGGTKLELKR
notes: Human IgG4 S228P and human kappa; also called 13F1A7 chimeric; LTV377
With B1, in assay [1], the “EC50 (read off the curve)” value was around 4 ng/mL.

B2: LYV379 (chimeric antibody, 17C5C2 in human IgG4SP / human kappa) (antibody, V domains shown)
VH: EVHILETGGGLVKPGGSLGLSCTTSGFNFNDYFMNWVRQAPGKGLEWVAQIRNGNYDYAAYYAESLEGRVTISRDDSKSSVNLQVSSLRAEDTAIYYCTSYYYDGHFDYFDNWGHGVMVTVSS
VL: DIKVTQSPSFLSASVGDRATINCKASQNLNKYLNWYQQKPGEPPKLLIYNTDNLYTGIPSRFSGSGSVADFTLTISGLQPEDVATYFCMQHNVRRTFGGGTKLELKR
notes: Human IgG4 S228P and human kappa; also called 17C5C2 chimeric
In the case of B2, the “EC50 (read off the curve)” value in assay [2] is around 5 ng/mL; in assay [1], around 20 ng/mL.

B3: LYV378 (chimeric antibody, 9F12D9 in human IgG4SP / human kappa) (antibody, V domains shown)
VH: EVHLVESGGGLVQPGRSLKLSCAASGFTFTNYGLHWIRQAPTKGLEWVASISPSGGVTYYRDSVKGRFTISRDNGKTTLHLQMDSLRSEDTATYYCALPFLGWGGANWIAHWGQGTLVTVSS
VL: DIQMTQSPASLSASLGETVSIECLASEDISNDLAWYQQKSGKSPQLLIYFVDRLLDGVPSRFSGSGSGTRHSLKISGMQPEDEADYFCQQSYKYPPTFGGGTKLELKR
notes: Human IgG4 S228P and human kappa; elsewhere it is 9F12D9; also called 9F12D9 chimeric; 9F12D8
Consider B3, for which the “EC50 (read off the curve)” value in assay [1] is around 4 ng/mL.

B4: LYV391 (chimeric antibody, 36G7B8 in hG4SP / human kappa) (antibody, human IgG4 S228P, kappa, V domains shown)
VH: QVQLQQPGAELVRPGASVKLSCKASGYIFISYWIHWLKQRPGRGLEWIGRIDPNNGGTKYNEKFRYKASLTVDKSSSTAYMQLSSLTSEDSAVYYCTKGVITTLVAGDYWGQGTTLTVSS
VL: DVVMTQIPLSLPVSIGDQASISCRSSQSLVYSYGNTYLHWFLQKPGQSPKLLIYNVSNRFSGVPDRFSGSGSGTDFTLRISRVEAEDLGVYFCSQGTHVPWTFGGGTKLEIKR
notes: Human IgG4 S228P and human kappa; also called 36G7B8 chimeric; 366788 (LYV391)
Regarding B4, the “EC50 (read off the curve)” value in assay [1] is around 20 ng/mL.

B5: LYV376 (chimeric antibody, 19G6D6 in human IgG4SP / human kappa) (antibody, V domains shown)
VH: EVQLQQSGPELVKPGASVKIPCKASGYTFTDYNMDWVKQSHGKSLEWIGDINPNNDISIYNQKFRGKATLTVDKSSSTAYMELRSLTSEDTAVYYCARRFAYWGQGTLVTVSA
VL: EIVLTQSPTTMAASPGEKITITCSASSSISSNYLHWYQQKPGSSPKVLIYRTSNLASGVPVRFSGSGSGTSYSLTIGTMEAEDVATYYCQQGSSIPYTFGGGTKLEIKR
notes: also called 19G6D6 chimeric; 1966D6 (LYV376)
Consider B5, for which the “EC50 (read off the curve)” value in assay [1] was around 3 ng/mL.

As a reminder, the EC50 (read off the curve) is the midpoint of the concentration-response curve.
